Measurements taken from US20050032064.

Target: PPAR GAMMA (Mus musculus) (UniProt P37238)
Assay: cell_activity
Settings: HepG2 per text (Cos per legend); induction vs empty pSG5; amplified by rosiglitazone

## (Rev-DR2)x2 SV40 promoter luciferase reporter
  activity: 2.5 fold
